Results from the DeepSol protein solubility set.

Test: soluble on expression in E. coli; label from the status in PepcDB or PDB records

Sequence	soluble on expression in E. coli
MGSDKIHHHHHHESSFLNLSDPNYFTESNFWKDKADAESALAAAYSPIKGAMYGYFGAFDGWLNLNGRGDDIYTIKGEEVPMWNIANFLNSPSTGNDPYGALYSGIQRANIVLRYIDQIPASGITEEDRSMIKGEALFLRGYQYFLLVNNYKEVPLRLIPSNEDETNKAAATEAALWAQVEEDLDNAIKCNLPVERSTAKERITKGAAIAMLGKVYATQHKYPEAKQLLGTLLKAPYSYELMDNFEKNFTNEEEFNKESVFELAYSPDGDYSWSNESGICLGCYIPQFIGPVKSGGWAKLMPNSLIVGEFTKETRPSDADTKFDKRMYASLFFDAANYGDKVPNEKWYGNNYSMDDLWEGNEGKMAGGAPSFNVNGTAGKFLIKKNTAYYVDDKAPDNMGNKEGRSSNLRVMRFAEVLLLYAEACAKTNDPDGANYALKQIRQRAGLTEKTFAQAELMNEIEHQCLLEFFAEGHRFDDLKRWYSPSEIQLIFKANGKQGAENFQEKHLYYPIPTSELNNNTAMEQTSLWK	not soluble
MGSDKIHHHHHHFRSFLMRDREKARKYVLKEIEKFGKRAFTWLFSDVVVEGSENIPKDRNFIVVANHQSLMDIPLILGFVATGAFIAKEELRKIPGVNWYIRYLNGVFLDRKNPRRAVRALREAIEKLKNGVTFIVFPEGTRSPDGKVLSFKKDSLMIAVKTGVPVLPVSIWGTYHLIPKGRWTFTPGKVFLKIHEPVDPKGFSSEEELRKYVEEVVKRGVEELKARWSK	not soluble
MGSDKIHHHHHHGAGISTESGIPDYRSKDVGLYARIAHKPIYFQDYMRSNRCRQRYWSRNFLAWPRFGQAAPNINHYALSKWEASDRFQWLITQNVDGLHLKAGSKMVTELHGSALQVKCTTCDYIESRQTYQDRLDYANPGFKEEHVAPGELAPDGDIILPLGTEKGFQIPECPSCGGLMKTDVTFFGENVNMDKVNFCYEKVNECDGILSLGTSLAVLS	not soluble
MGSDKIHHHHHHGAGVSTGSKLPDFRGKQGVWTLQAEGKHAEGVDFQVARPGVSHKSILALHKAGYIKTIITQNVDGLDRKVGIPVEDLIEVHGNLFLEVCQSCFSEYVREEIVMSVGLCPTGRNCEGNKRTGRSCRGKLRDATLDWDTEISLNHLDRIRKAWKQTSHLLCIGTSLEIIPMGSLPLDAKSKGIKTTTINYQETAHEKIVETAIHADVKLILYSLCNALGVNVDLGDDLPDEVPIPLKIS	not soluble
MGSDKIHHHHHHGCSDDFKSGLRLDGDVWVNSIRLDEYAGTVDYQNKAIVVGVPYDYDITRMVVTEMNLSEGAKASIAIGETIDFSLPVSLTVKNGDVQMSYTITVKRDEAKILTFKLNDTYVGKVDQLSKTISVVVPLTVDITQLKGTFTVTDGATVTPASGSIQDFTNPVTYTATYRSAVTPYVVTVTQGNVIPTAFVGTASSVSLLTSPEEKAAAQWMMDNVSMSEYISFKDVVDGKVDLGKYTAIWWHFHADNGDNPPLPDDAKAAAEKFKVYYQNGGNLLLTRYATFYIANLGIAKDERVPNNSWGGNEDSPEITSAPWSFLITGSESHPLFQDLRWKDGDKSTVYTCDAGYAITNSTAQWHIGTDWGGYDDLNAWRNLTGGIDLAHGGDGAVVIAEFEPRSNSGRTLCIGSGCYDWYGKGVDASADYYHYNVEQMTLNAINYLCK	not soluble
MGSDKIHHHHHHGGEDYVQAEQAPMLKIPEGLKTPPYNKEYDVPALGPKANPALVGKNLDIRPPLQVLPMAEGTHVEEGSDNIKIVVESIDNNVDLKQEIFTNLDDFFAKQAIPIRSRDFDKGSIETDWIESREVLESSLWGSDKEYLLRQRYRFDVETRPHGRTANIVIHLVEHEEFYDGKEQKVMLSGEDKQRYTIDMLNSAIAYMSVKREQTIQANRLKQTLGINVDLITPEEGAAYWSAKAAYKQVWDRLRIVLPEMGFEISDMDSAKGLYFIKFTDNSGFWSSLWNNNQLSLKEGSYRLLLEDGDTPDETKIWLRDAEDQPLSNDVVSKVYESLSSLMKEERKLR	not soluble
MGSDKIHHHHHHINVYFRGPRTHRMPQWVRVVFLQFLPKLVCMKRPKSASERSAVRSGMAQLPGVGQFTLSPSAHHPLCPSADDRTTTIRNTASNETSAYYPLSTDALRAIDAIEYITEHLKRDEQHKSFRDDWKYVAMIIDRL	not soluble
MGSDKIHHHHHHKIEELTAVPLQIGYEKTLHLIFPTEVKYYSIGGDYVIGEKVVNCPGIIRLKAAEENFPGETTLSVVTADTKFYSYSISYNAHPAQSYVRIGGEAPTPHTLPVGKEKQLFLIFPAGITYVDYGSTNVEVDKAEGVDNILAVKAVQPYKEDTNISVVLEGGKFYTFDLRYVPAPERFSFVIDKEDTQRVAILDEKERSYGQKERIREAVAKRTPLDLGLRDKNSGMEFEVGNIFIDGDVLLLRMTLTNRTQIGYTTDFMRFYIQDAKIRKKTAVQQLEQNILFTFDYPEEIPAHESRTFTVAMNKFTIPDKKRLIIEIQERNGGRHFLYKLKNKSLLTAEEVFRSRKQQETEDEADKILRRIAR	not soluble
MGSDKIHHHHHHKQLVHEGYRVTGCKRSAEELSALTEVGIEAYPLQLGSEAPSAPDAQALSGLFQTDYLVVNIPPRLKRGNAAYLEELQQLIALTQGWQYQQIVFISTTGVYPAKDKVMTEADALAESSDSQVLLDAEALFQVLPHACIVRFAGLVGPKRHPGRFLAGKTDVSGANVAVNLVHLSDCVSAVSRILAATGSGLSVAPIYNLCAPTHPTKAEFYQAAAESLGLVAPEFNQQSMPSKVIQGDAIVTDLGFRYQYASPQDMLAAC	not soluble
MGSDKIHHHHHHLCLIKPGLKVLEIGCGTGRVLKPLLESGASVVGVDISHEMLALAHNKLASFCDSGALRLLNHNFVYSSIPERFDRVFVTFYTFNYLLSYENALSFLKNIYSSMNDGAVLLMDMFFPSIYHNPAIEGKWQQRYLNLGAKQIRLSDRRTMRGPMEKREQVFEEDGGRQEITTLRRFYDKNETARLLREAGFSSVKFTDVYDSTLFHQLELLEATDRGFLVMGRREAGGGEG	not soluble
MGSDKIHHHHHHLDNSTSTATIDPPLRLGLAMWSQNQWQQTVYGNSQAHRLARYAEIFNTVEGNTTFYATPSLQNVQNWYAATHDEFKFTFKLPKHITHELQLQHAGPALQQFFSIMEPLINRTGVWKIQLPASFGPQSLPQLAQFLTQVPQGLTYGVEVRNSAFFAKGEAEQALNRLLIDNNCNRIIMDTRPVFAAAPTTAAVIDAHQKKPKVPVHAIATAHNPVVRFIGHPQAEANIHFFQNWLKQLPLWIAQNKQPYLFIHTPDNHNAPQLAVDLYRLLQQQLAQSTSALTDINLLPQQQHTTTQMGFDL	not soluble
MGSDKIHHHHHHLDVDTGKLQSLAASRYGARGARAVDDWLQLLRNDTSASEANQLARVNAFWNQRVLSGEDTHIWGRADYWATPLETLGKGAGDCEDYVIGKYFSLISLGVPTEKLRFIYVRARIGGPYSNQQIAHMVLGYYPTPNAVPLVLDSLISTIMPANERRDLTPVFSFNADGVYVDGKQASPVDRLSRWRDLLLRMEREGLRP	not soluble
MGSDKIHHHHHHLKAIKYGVTREHIREFKVALTDGKVYKFGSKSVKSSSGYSLNDLIIGSEGTLGVITEAVLRLYPRPKHALNAIIPFPTLDDAIESVPAILASGVEYMGRKVLNLWEKYYDATFPIKEGDGFIILGIDSFTASDAEAQLAQALEAVKPFHALKETVLNAESDEAKTIWDAREKLLLAIQKSTPKMDEVDVSVPINKIPLVLHRIEELEKEEDMRIPNFGHAGDGNLHIYLCSDDMTDEEFAKKGDNVISELYKTAKSVDGNMSGEHGVGYARQNYYEDFYGKDYTDLLRKVKGLFDPKGILNPDKIFPLD	not soluble
MGSDKIHHHHHHLLQAELGITSQRHFYSIGHLFPCGQLLERSRFNRRSKQLIWLVQFIRKAMSEMLPSDKLAIIDSFPLPLCQPVRNHRASIFKGLADIGYNASKHLWFYGFKVHMLVTLSGYILNYVVTPASVHDIKVVYELLEGCKQSVILGDLGYLSSELKKDLEQEGYHLWTPFRKNMTGAEEHNNWKVMAMRRTIETRFSELCRLFDIEHTLTRSLAGLQLRMEQIILAHNLRYFEMN	not soluble
MGSDKIHHHHHHLNTLKTNAMEIFKQAVSTLNNPEVQGWKQQGGKVVGYFYSYIPEELITAAGLLPYKIRGIGSPGAAMADKYFTHNVCSLVRDTFELVLKGECDFLDGVINFNGCDHIRRISDNWQSLENNPCFHFLVLPKKVGKEQTERYREELVSLKASIEKRFNLVISEDKLKEAIRLHNKKRQLQRRLYELKKRENPPLSGAETLTVMIAGTVMPVARYNRLLAELIDELSISEGKKPNARLMLIGGELDNPELLKILESQGGMVVSDTMALGAREIACDVSETEDGLTALARYHMEDKPPCPRLYGTFQERFDFIRKTAREYQVDGVISLRFLLCDIWGFEQNDIAEILRTEKLPYLKLETEYALTNAGQLKTRVQAFVETLGEV	not soluble
MGSDKIHHHHHHLPALPHIPIPVNFEEYCQQKAAPPGSSTYYALRQAPAASQPLLTALFALRREFEETVKETSDPTIGRTKLAWWQNEIAALASDSPSHPVSKALAAYLPDVKTEYPALQTLLAGFEMDLDQARYLDYPNLRRYVQGVGGTFASLVARATAKDAAQASNWSAPLGEALMLAQFVVETGHDARHGRIYIPIDEMQRFNVTAADLINRKYTEAFTELMRFETKRARDALQSALGAVPGSERRTQRTLVAQAALASALLDEIERDGYHVLHQRIALTPIRKLWIAWRAK	not soluble
MGSDKIHHHHHHLQVEKNVVISEFIVNMEDVLYHRDNTDVNIAEKVAEQTASLAHYGVAHYVLTNATNQQDSDNLHIVQTDLFEHYPKLTLYFYRILMAFDFLQAHPEIEKAALTDAGDVKMLNYPFDAVEDGILYMGDETIFIYDTSILIGYDGPQFIKDFIWENGHLPILNLGIMVGTRETLIEYLGIMVKLITEAELSLAQGNDEAFLGTYKMAISNYVAYYYFKDRLVHGNQVSTIFHGEQMVSGAWFKHK	not soluble
MGSDKIHHHHHHLRLFGTKDEQLFMLFSESARVVVRGGDILQNVVNDYSDLDIKMAKLTAMEHEGDRIIQELIRRLNTSFILPFDREDAFQLAQKLSTTLDYITGIIDRMILYKTGRPNKRVKEMVNVLCEALFLQERALNLLQSLEHNKREILECCEEIRQLERKQDNHYRQGLALLFENEEEPIVIIKWREVYEHIEMAQDYVQDVAELISNICVKYS	not soluble
MGSDKIHHHHHHLRLQLSTWPEVADYLSTRRGVIIPIGSTEQHGPSGLIGTDAITAEVVSWRAGEVLDTLVAPTIAVGMAHHHMAFPGSMTLRPSTLIAVIRDTILALSSHGFTRFLFVNGHGGNIPSIQSAFYEAYEEMRVHHGDGAPDIACQLCSWFSSPAVEALAAEAFGDAEGSHATPSEVSVTWHAYPDQQRTPVLDPPVAPQGRFTDSRDFRRAFPDGRIGSNPALATPELGGRFVEVAVDYIATTYGDFLKG	not soluble
MGSDKIHHHHHHLTLMGLSVTDYDSEMPDATEPGTTERSLVELLLAEGPSTRLELQAKLGVSRPTLSSAVNKLLSLGLLQEQGTAAYGAGRNGRPQALLAPNRAMGAAVGIELGKAQVAVTILAIDGTVHAQKVTSTSPGTTLQRRLNIALGSVGTFISSNILNPESVLGVGVGVSGLHPDARPAGGSALVDPPGAKLDKLRTLLAAPVVWDNNTRMATFRHLGGSGLDSPGAVLYVVLSAGVSAGIVDGGEVLRGRGAAGELGHVCLDPEGPVCGCGSRGCLEAYVGVEAVLRSARGKGATVADLEELAAVVQSGDADALAVIGLVGRMLGIGLNNAAMLVDPRRIILTGPLLSLGPALVSAATEELRIRRMAVTLGVPDVVAEIGSPFDSSHGAALTALRRWGPGFMGMLTQNGIATTG	not soluble
